Each block holds one binder with its values, some of them ahead of it.
What was measured:
[1] = biological target: cynomolgus monkey IL-36R variant 1 (on cells) (cynomolgus monkey); assay: cell-based or functional assay
[2] = biological target: T1, human IL-36R (on cells) (human, UniProt Q9HB29 20-575); assay: flow cytometry on CHO-K cells co-expressing human IL-36R and human IL-1RAcP
T1 construct: whole, on cells; also called hIL-36R; interleukin 36 receptor
T1 sequence (looked up): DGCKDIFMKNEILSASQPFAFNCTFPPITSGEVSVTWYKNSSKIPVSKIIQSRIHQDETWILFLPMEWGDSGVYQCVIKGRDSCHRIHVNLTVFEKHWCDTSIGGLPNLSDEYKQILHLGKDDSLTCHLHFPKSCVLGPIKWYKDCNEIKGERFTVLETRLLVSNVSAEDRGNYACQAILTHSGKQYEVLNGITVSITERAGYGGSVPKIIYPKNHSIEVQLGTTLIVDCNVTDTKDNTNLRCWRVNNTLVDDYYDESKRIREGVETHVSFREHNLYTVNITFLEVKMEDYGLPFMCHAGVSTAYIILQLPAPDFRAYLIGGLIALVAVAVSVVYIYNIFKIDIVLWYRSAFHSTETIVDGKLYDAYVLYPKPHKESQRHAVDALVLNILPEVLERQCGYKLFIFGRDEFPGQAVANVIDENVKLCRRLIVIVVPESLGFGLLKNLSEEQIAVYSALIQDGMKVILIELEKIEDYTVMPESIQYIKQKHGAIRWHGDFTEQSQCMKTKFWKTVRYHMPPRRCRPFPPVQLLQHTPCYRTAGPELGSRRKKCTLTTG
Protocol: The binding of antibodies to CHO-K cells stably co-expressing human IL-36R and human IL-1RAcP was examined. Cynomolgus IL-36R allelic variation was examined by Sanger sequencing, and four distinct allelic variants were identified within cynomolgus monkey populations. The binding of antibodies to CHO-K cells stably co-expressing cynomolgus monkey IL-36R variant 1 and cynomolgus monkey IL-1RAcP was also examined for APE6155 and APE7247. Each antibody was incubated with CHO cells harvested using accutase, washed, and seeded at 500,000 cells per well. Cells were incubated with antibodies at concentrations ranging from 33 nM-16 pM for 30 minutes at 4° C., and washed three times with FACS staining buffer. Cells were spun and aspirated, and then the incubated with 100 μl paraformaldehyde for 10 minutes at room temperature. Cells were again washed, aspirated, and stained with 100 μL of anti-human IgG Alexa 647 for 20 minutes at 4° C. Cells were resuspended in 100 μL FACS analysis buffer before analysis on the FACS Array (BD Biosciences).

[3] = biological target: cyno IL-36R (BIACORE antigen of Table 4) (cynomolgus monkey); assay: BIACORE T200 SPR, cyno IL-36R
[4] = biological target: T2, extracellular domain of human IL-36R (human, UniProt Q9HB29 20-335); assay: KINEXA 3000 solution-phase equilibrium, soluble human IL-36R extracellular domain
T2 construct: extracellular domain; Immobilised on the chip in the BIACORE assay; soluble and bead-coupled in the KINEXA assay; also called soluble human IL-36R extracellular domain
T2 sequence (looked up): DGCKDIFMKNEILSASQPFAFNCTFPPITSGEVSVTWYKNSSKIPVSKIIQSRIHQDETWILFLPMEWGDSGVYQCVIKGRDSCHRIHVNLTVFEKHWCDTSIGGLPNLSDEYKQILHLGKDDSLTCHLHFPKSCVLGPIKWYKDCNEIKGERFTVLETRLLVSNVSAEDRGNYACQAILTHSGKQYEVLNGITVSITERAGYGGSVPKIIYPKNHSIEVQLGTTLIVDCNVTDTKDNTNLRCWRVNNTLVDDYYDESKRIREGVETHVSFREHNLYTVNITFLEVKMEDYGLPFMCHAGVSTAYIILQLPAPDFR
Protocol: The binding affinities of various purified antibodies comprising immunoglobulin heavy chain (HC) and light chain (LC) polypeptides described herein also were evaluated using a KINEXA® 3000 assay (Sapidyne Instruments, Boise, Id.) assays. KINEXA® technology measures the amount of unbound/free antibody molecule in solution phase after incubation with varying concentrations of antigen. Measuring binding events in the solution phase with micro beads for maximized surface area avoids mass transport limitations and mobility effects inherent to methods that measure binding to a solid phase. For each experiment, 50 μg of soluble human or cyno IL-36R extracellular domain was amine-coupled to 50 mg of UltraLink Biosupport beads (Thermo Fisher Scientific, Waltham, Mass.). […] Antibody-antigen solution was then flowed over antigen-coupled beads at a rate of 0.25 mL/min. Free antibody captured by beads was detected using ALEXA FLUOR™ 647-conjugated AffiniPure Donkey Anti-Human IgG (H+L) (Jackson ImmunoResearch, West Grove, Pa.) (500 ng/ml). The KD and/or ABC (active binding concentration) of antibody was obtained from non-linear regression analysis using a one-site homogeneous binding model in the KINEXA™ Pro Software.

[5] = biological target: T1, human IL-36R (on cells); assay: cell-based or functional assay
[6] = biological target: T2, extracellular domain of human IL-36R; assay: BIACORE T200 SPR, human IL-36R extracellular domain immobilised, antibody injected
Protocol: The binding affinities of various purified antibodies comprising immunoglobulin heavy chain (HC) and light chain (LC) polypeptides described herein were evaluated using BIACORE™ T200 […] assays. BIACORE™ T200 evaluation software (GE Healthcare, Buckinghamshire, United Kingdom) is used to determine antibody-antigen binding kinetics and affinity. The extracellular domain of human IL-36R was immobilized at approximately 100 RU onto a CMS sensor chip (GE Healthcare, Waukesha, Wis.) using amine coupling chemistry. HBS-EP+ buffer (0.01 M HEPES, 0.15 M NaCl, 3 mM EDTA, 0.05% Polysorbate, pH 7.6) (Teknova, Hollister, Calif.) was used to reconstitute each antibody at various concentrations Each antibody concentration was then injected for two to three minutes over immobilized antigen at a flow rate of 30 μL/min, and allowed to dissociate for 15 minutes. The surface was regenerated with 60 μL of 3 M MgCl₂ after each cycle. Association and dissociation kinetic constants (kon and koff) were fit globally using a 1:1 binding model with mass transport with the BIACORE™ T200 evaluation software in order to report on- and off-rates (ka and kd, respectively), as well as affinities (KD).

[7] = biological target: cynomolgus monkey IL-36R variant 1 (on cells) (cynomolgus monkey); assay: flow cytometry on CHO-K cells co-expressing cynomolgus IL-36R variant 1 and cynomolgus IL-1RAcP
[8] = biological target: T1, human IL-36R (on cells); assay: cell-based or functional assay; remark: listed apart in the source
[9] = biological target: T1, human IL-36R (on cells); assay: cell-based or functional assay; remark: listed apart in the source
[10] = biological target: cynomolgus monkey IL-36R variant 2 (on cells) (cynomolgus monkey), A0A2K5; assay: cell-based or functional assay
[11] = biological target: cynomolgus monkey IL-36R variant 3 (on cells) (cynomolgus monkey), A0A2K5; assay: cell-based or functional assay
[12] = biological target: cynomolgus IL-36R (on cells, allelic variant not stated) (cynomolgus monkey), A0A2K5; assay: cell-based or functional assay
cynomolgus IL-36R (on cells, allelic variant not stated) (cynomolgus monkey), A0A2K5, sequence (chain, as listed by the source mutant): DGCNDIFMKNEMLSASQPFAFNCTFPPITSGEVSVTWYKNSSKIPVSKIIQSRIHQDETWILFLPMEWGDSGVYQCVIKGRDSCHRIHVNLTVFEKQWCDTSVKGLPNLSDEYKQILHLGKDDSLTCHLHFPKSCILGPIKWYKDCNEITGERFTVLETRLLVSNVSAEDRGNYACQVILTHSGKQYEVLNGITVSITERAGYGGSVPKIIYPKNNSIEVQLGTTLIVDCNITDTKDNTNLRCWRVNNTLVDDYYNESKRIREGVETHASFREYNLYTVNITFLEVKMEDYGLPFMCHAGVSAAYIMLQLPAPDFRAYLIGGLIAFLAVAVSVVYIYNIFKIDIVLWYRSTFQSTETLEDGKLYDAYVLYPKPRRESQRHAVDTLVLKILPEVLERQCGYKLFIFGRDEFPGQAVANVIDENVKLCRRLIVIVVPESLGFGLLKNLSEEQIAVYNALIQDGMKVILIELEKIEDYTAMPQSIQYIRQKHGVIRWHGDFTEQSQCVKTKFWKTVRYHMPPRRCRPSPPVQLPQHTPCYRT

cynomolgus monkey IL-36R variant 2 (on cells) (cynomolgus monkey), A0A2K5, sequence (chain, as listed by the source mutant): as above
cynomolgus monkey IL-36R variant 3 (on cells) (cynomolgus monkey), A0A2K5, sequence (chain, as listed by the source mutant): as above

EC50 (nM), IL-8 luciferase reporter assay, 300 ng/ml IL-36γ (Cyno IL-36R variant 1) [1]: 0.079 nM
EC50 [2]: 2800 pM
Kd [3]: < 20 pM
Kd [4]: 100 pM
EC50 (nM), HEK human IL-36R IL-8 luciferase reporter assay, 20 ng/ml hIL-36β [5]: 0.114 nM
EC50 (nM), HEK human IL-36R IL-8 luciferase reporter assay, 50 ng/ml hIL-36α [5]: 0.066 nM
EC50 (nM), HEK human IL-36R IL-8 luciferase reporter assay, 200 ng/ml hIL-36γ [5]: 0.104 nM
Kd [6]: < 20 pM
EC50 [7]: 3300 pM
EC50 (nM), IL-8 secretion by primary human keratinocytes, 1 ng/ml human IL-36β [8]: 0.336 nM
EC50 (nM), IL-8 secretion by primary human keratinocytes, 10 ng/ml human IL-36α [8]: 0.142 nM
EC50 (nM), IL-8 secretion by primary human keratinocytes, 100 ng/ml human IL-36γ [8]: 0.074 nM
B1: Hzd 18D4 (APE7247) (antibody, V domains shown)
VH: DVQFQESGPGLVKPSQTLSLTCTVTGYSITADFAWNWIRQPPGKGLEWIGYISYSGDTNYNPSLKSRVTITRDTSKNQFSLKLSSVTAADTAVYFCAIRGPYSFTYWGQGTLVTVSS
VL: DIQMTQSPSSLSASVGDRVTITCRASQWINNYLNWYQQKPGKAPKLLIYYTSMLHSGVPSRFSPSGSGNDYTFTISSLQPEDIATYYCQQGHTLPWTFGGGTKVEIKR
notes: also called APE6903; APE07247

EC50 (nM), IL-8 secretion by primary human monocytes, human IL-36α [9]: 0.088 nM
EC50 (nM), IL-8 secretion by primary human monocytes, human IL-36β [9]: 0.117 nM
EC50 (nM), IL-8 secretion by primary human monocytes, human IL-36γ [9]: 0.078 nM
EC50 (nM), IL-8 luciferase reporter assay, 300 ng/ml IL-36γ (Cyno IL-36R variant 2) [10]: 0.043 nM
EC50 (nM), IL-8 luciferase reporter assay, 300 ng/ml IL-36γ (Cyno IL-36R variant 3) [11]: 0.21 nM
EC50 (nM), HEK cyno IL-36R IL-8 luciferase reporter assay, 300 ng/ml cIL-36γ [12]: 0.31 nM
EC50 (nM), HEK cyno IL-36R IL-8 luciferase reporter assay, 2 µg/ml cIL-36α [12]: 0.08 nM
EC50 (nM), HEK cyno IL-36R IL-8 luciferase reporter assay, 10 µg/ml cIL-36β [12]: 0.13 nM
EC50 (nM), IL-8 secretion by primary cynomolgus PBMCs, 10 ng/ml cyno IL-36β [12]: 1.5 nM
EC50 (nM), IL-8 secretion by primary cynomolgus PBMCs, 50 ng/ml cyno IL-36α [12]: 1.2 nM
EC50 (nM), IL-8 secretion by primary cynomolgus PBMCs, 250 ng/ml cyno IL-36γ [12]: 0.89 nM
EC50 (nM), IL-8 secretion by primary cynomolgus keratinocytes, 10 ng/ml cyno IL-36β [12]: 1.4 nM
EC50 (nM), IL-8 secretion by primary cynomolgus keratinocytes, 50 ng/ml cyno IL-36α [12]: 1.1 nM
EC50 (nM), IL-8 secretion by primary cynomolgus keratinocytes, 250 ng/ml cyno IL-36γ [12]: 1.1 nM
EC50 (nM), IL-8 luciferase reporter assay, 300 ng/ml IL-36γ (Cyno IL-36R variant 1) [1]: 0.042 nM
EC50 [2]: 1500 pM
Kd [4]: 169 pM
EC50 (nM), HEK human IL-36R IL-8 luciferase reporter assay, 20 ng/ml hIL-36β [5]: 0.22 nM
EC50 (nM), HEK human IL-36R IL-8 luciferase reporter assay, 50 ng/ml hIL-36α [5]: 0.23 nM
EC50 (nM), HEK human IL-36R IL-8 luciferase reporter assay, 200 ng/ml hIL-36γ [5]: 0.4 nM
Kd [6]: 71 pM
EC50 [7]: 2400 pM
EC50 (nM), IL-8 secretion by primary human keratinocytes, 1 ng/ml human IL-36β [8]: 0.227 nM
EC50 (nM), IL-8 secretion by primary human keratinocytes, 10 ng/ml human IL-36α [8]: 0.125 nM
EC50 (nM), IL-8 secretion by primary human keratinocytes, 100 ng/ml human IL-36γ [8]: 0.093 nM
B2: Hzd 5D3 (APE6155) (antibody, V domains shown)
VH: QVQLVQSGAEVKKPGASVKVSCKASGYTFTNYWMNWVRQAPRQGLEWMGMFHPTGDVTRLNQKFKDRVTMTRDTSTSTVYMELSSLRSEDTAVYYCARTTSMIIGGFAYWGQGTLVTVSS
VL: DIVMTQTPLSLSVTPGQPASISCRSSKSLLHRNAITYFYWYLHKPGQPPQLLIYQMSNLASGVPDRFSGSGSGTDFTLKISRVEAEDVGVYYCAQNLELPLTFGGGTKVEIK
notes: also called APE6917; APE06155

Source: patent US20200087408A1 (ANAPTYSBIO, published 2020)
